One block for each binder: values may come before it. Where no end group is shown, it is not given here.
Experiments:
[1] = molecular target: T1, PKC-α (purified isoform) (Homo sapiens (Human), UniProt P17252 2-672); assay: competitive ELISA, coated purified PKC-α, vs anti-PKC α (SC-208); PRE 50 µM
T1 construct: also called purified PKC-alpha; commercially purified PKC-alpha
Description: (§1) Greiner 96 well ELISA plates were coated with the appropriate PKC isoform diluted in PBSN (PBS with Calcium/Magnesium+0.05% Sodium azide w/w). 50 μL/well at 250 ng/mL was used. Control wells contained PBSN only. Plates were incubated overnight at 4° C.
(§2) The plates were washed 3 times with 200 μL of dH₂O per well, then 100 μL of blocking solution was added per well and the plate incubated for 1 h at 37° C. The washing steps with dH₂O were repeated and 50 μL of the appropriate PRE solution (PRE stock solution [20 mM in DMSO] diluted in PBSN) was added and the plate incubated for 1 h at room temperature.
(§3) 50 μL of 1:1000 dilution of Alkaline Phosphatase (AP) conjugated antibody (anti-rabbit for all except zeta, which was anti-goat) was then added and the plate incubated for 1 h at room temperature. Washing with dH₂O was then repeated. Finally, 100 μL of pNPP solution in pNPP buffer (2 mM MgCl₂, 100 mM Sodium bicarbonate in water, pH 9.8) was added to all wells and incubated for 8 minutes for α, βI, βII ε, and ζ, or for 15-20 mins for δ (until sufficient coloration is observed). The reaction was stopped by addition of Stop solution (2N NaOH) and the absorbance at 405 nm was read on a Galaxy Plate reader.

[2] = molecular target: T2, PKC-δ (purified isoform); assay: competitive ELISA, coated purified PKC-δ, vs anti-PKC δ (SC-213); PRE 50 µM
T2 construct: also called PKC-delta
Description: as §1, §2, §3

[3] = molecular target: T3, PKC-βII (purified isoform) (Homo sapiens (Human), UniProt P05771 2-621); assay: competitive ELISA, coated purified PKC-βII, vs anti-PKC βII (SC-210); PRE 100 µM
T3 construct: also called PKC-beta II; PKC beta 2
Description: as §1, §2, §3

[4] = molecular target: T2, PKC-δ (purified isoform); assay: competitive ELISA, coated purified PKC-δ, vs anti-PKC δ (SC-213); PRE 100 µM
Description: as §1, §2, §3

[5] = molecular target: T2, PKC-δ (purified isoform); assay: competitive ELISA, coated purified PKC-δ, vs anti-PKC δ (SC-213); PRE 200 µM
Description: as §1, §2, §3

[6] = molecular target: T1, PKC-α (purified isoform); assay: competitive ELISA, coated purified PKC-α, vs anti-PKC α (SC-208); PRE 100 µM
Description: as §1, §2, §3

[7] = molecular target: T3, PKC-βII (purified isoform); assay: competitive ELISA, coated purified PKC-βII, vs anti-PKC βII (SC-210); PRE 200 µM
Description: as §1, §2, §3

[8] = molecular target: T3, PKC-βII (purified isoform); assay: competitive ELISA, coated purified PKC-βII, vs anti-PKC βII (SC-210); PRE 50 µM
Description: as §1, §2, §3

[9] = molecular target: T1, PKC-α (purified isoform); assay: competitive ELISA, coated purified PKC-α, vs anti-PKC α (SC-208); PRE 200 µM
Description: as §1, §2, §3

[10] = molecular target: T4, PKC-βI (purified isoform) (Homo sapiens (Human), UniProt P05771 2-671); assay: competitive ELISA, coated purified PKC-βI, vs anti-PKC βI (SC-209); PRE 50 µM
T4 construct: also called PKC-beta I; PKC beta 1
Description: as §1, §2, §3

[11] = molecular target: T4, PKC-βI (purified isoform); assay: competitive ELISA, coated purified PKC-βI, vs anti-PKC βI (SC-209); PRE 200 µM
Description: as §1, §2, §3

[12] = molecular target: T4, PKC-βI (purified isoform); assay: competitive ELISA, coated purified PKC-βI, vs anti-PKC βI (SC-209); PRE 100 µM
Description: as §1, §2, §3

[13] = molecular target: T5, PKC-ε (endogenous, IMR-32 lysate) (human, UniProt Q02156 1-737); assay: WB competition Protocol B, IMR-32 extract, vs anti-PKC-ε Ab; PKC-ε Band 2; 100 µg peptide
T5 construct: Band 1 and Band 2 (alternate splicing variants, not identified further) are kept under one molecule; the band is named in the assay field of each row; also called PKC-epsilon; PKC-ε Band 1
T5 sequence (looked up): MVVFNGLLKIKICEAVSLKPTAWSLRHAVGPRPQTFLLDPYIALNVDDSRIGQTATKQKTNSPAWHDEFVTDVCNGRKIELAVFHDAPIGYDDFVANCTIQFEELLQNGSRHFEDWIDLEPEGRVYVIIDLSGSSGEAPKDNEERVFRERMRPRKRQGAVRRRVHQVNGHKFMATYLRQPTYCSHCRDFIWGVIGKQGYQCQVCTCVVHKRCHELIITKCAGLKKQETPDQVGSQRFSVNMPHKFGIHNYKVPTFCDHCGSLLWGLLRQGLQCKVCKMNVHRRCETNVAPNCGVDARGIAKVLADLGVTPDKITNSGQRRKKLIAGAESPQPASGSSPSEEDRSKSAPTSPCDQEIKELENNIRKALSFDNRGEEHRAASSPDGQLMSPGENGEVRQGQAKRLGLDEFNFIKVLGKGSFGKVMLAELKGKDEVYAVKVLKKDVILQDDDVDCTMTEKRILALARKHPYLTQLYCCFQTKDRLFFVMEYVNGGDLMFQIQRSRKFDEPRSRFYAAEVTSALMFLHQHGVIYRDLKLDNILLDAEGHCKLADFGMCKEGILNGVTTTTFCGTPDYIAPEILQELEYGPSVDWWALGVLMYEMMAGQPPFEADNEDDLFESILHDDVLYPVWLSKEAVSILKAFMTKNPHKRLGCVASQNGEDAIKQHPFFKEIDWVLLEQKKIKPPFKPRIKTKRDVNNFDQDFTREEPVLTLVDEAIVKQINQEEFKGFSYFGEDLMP
Description: (§4) The ability of the peptides PRE 2 and PRE 3 (see Table 4) to interfere with the binding of a PKC-α-specific polyclonal antibody (Santa Cruz Biotechnology, Inc.) to PKC-α was determined using a modified version of the protocol outlined above in which the test peptide was added directly to the cell extract prior to electrophoresis at a concentration of either 5× or 15× the concentration of the protein applied to each well of the gel for the Western blots (20 μg).
(§5) Peptides PRE 2, PRE 3 and PRE 4 (see Table 4) were tested for their ability to interfere with the binding of isoform-specific polyclonal antibodies (Santa Cruz Biotechnology, Inc.) to […] using the general protocol described in Example 3. Two bands, representing alternate splicing variants of PKC-ε, were identified on the Western blot using this anti-PKC-ε antibody.

[14] = molecular target: T5, PKC-ε (endogenous, IMR-32 lysate); assay: WB competition Protocol B, IMR-32 extract, vs anti-PKC-ε Ab; PKC-ε Band 1; 100 µg peptide
Description: as §4, §5

[15] = molecular target: T5, PKC-ε (endogenous, IMR-32 lysate); assay: WB competition Protocol B, IMR-32 extract, vs anti-PKC-ε Ab; PKC-ε Band 1; 20 µg peptide
Description: as §4, §5

[16] = molecular target: T5, PKC-ε (endogenous, IMR-32 lysate); assay: WB competition Protocol B, IMR-32 extract, vs anti-PKC-ε Ab; PKC-ε Band 2; 50 µg peptide
Description: as §4, §5

[17] = molecular target: T5, PKC-ε (endogenous, IMR-32 lysate); assay: WB competition Protocol B, IMR-32 extract, vs anti-PKC-ε Ab; PKC-ε Band 1; 50 µg peptide
Description: as §4, §5

[18] = molecular target: T5, PKC-ε (endogenous, IMR-32 lysate); assay: WB competition Protocol B, IMR-32 extract, vs anti-PKC-ε Ab; PKC-ε Band 2; 20 µg peptide
Description: as §4, §5

T4 sequence (P05771 2-671 limits assumed): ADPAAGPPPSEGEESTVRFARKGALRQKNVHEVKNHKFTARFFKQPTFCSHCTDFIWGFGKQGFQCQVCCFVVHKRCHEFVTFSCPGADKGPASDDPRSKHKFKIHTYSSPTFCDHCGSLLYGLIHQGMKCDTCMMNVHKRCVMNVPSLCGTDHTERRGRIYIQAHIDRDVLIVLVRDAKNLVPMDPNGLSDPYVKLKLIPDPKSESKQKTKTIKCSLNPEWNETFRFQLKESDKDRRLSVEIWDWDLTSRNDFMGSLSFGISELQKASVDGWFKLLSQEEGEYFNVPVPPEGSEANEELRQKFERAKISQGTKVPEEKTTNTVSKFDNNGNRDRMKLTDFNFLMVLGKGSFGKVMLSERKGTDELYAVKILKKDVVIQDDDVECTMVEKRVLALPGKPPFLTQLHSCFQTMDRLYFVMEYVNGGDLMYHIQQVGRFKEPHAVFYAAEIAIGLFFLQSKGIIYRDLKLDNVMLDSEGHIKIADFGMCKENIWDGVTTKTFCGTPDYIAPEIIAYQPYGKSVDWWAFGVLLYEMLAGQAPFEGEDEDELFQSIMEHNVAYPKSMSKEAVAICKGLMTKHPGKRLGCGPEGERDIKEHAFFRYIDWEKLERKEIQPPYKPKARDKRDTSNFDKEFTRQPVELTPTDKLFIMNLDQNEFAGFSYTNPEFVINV
T2 sequence (Q05655 whole entry, stated change not applied, canonical isoform): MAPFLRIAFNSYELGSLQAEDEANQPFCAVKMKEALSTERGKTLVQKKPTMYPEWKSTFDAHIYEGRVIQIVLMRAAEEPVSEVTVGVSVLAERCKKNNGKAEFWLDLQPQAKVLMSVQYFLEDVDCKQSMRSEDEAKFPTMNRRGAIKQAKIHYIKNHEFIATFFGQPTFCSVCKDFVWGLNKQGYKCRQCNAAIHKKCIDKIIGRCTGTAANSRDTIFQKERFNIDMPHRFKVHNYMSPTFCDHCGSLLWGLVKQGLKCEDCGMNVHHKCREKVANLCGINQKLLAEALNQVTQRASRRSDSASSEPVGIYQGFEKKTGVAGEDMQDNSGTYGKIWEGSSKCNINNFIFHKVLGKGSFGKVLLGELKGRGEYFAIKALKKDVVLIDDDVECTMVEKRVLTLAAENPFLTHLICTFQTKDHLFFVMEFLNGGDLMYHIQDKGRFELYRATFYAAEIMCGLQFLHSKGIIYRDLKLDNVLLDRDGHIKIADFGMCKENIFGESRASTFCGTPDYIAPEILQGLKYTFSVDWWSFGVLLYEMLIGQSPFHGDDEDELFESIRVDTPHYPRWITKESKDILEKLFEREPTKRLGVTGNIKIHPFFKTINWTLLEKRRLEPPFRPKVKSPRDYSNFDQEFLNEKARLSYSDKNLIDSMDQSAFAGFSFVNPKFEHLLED
T3 sequence (P05771 other isoform, or with tags, fused parts or gaps limits assumed): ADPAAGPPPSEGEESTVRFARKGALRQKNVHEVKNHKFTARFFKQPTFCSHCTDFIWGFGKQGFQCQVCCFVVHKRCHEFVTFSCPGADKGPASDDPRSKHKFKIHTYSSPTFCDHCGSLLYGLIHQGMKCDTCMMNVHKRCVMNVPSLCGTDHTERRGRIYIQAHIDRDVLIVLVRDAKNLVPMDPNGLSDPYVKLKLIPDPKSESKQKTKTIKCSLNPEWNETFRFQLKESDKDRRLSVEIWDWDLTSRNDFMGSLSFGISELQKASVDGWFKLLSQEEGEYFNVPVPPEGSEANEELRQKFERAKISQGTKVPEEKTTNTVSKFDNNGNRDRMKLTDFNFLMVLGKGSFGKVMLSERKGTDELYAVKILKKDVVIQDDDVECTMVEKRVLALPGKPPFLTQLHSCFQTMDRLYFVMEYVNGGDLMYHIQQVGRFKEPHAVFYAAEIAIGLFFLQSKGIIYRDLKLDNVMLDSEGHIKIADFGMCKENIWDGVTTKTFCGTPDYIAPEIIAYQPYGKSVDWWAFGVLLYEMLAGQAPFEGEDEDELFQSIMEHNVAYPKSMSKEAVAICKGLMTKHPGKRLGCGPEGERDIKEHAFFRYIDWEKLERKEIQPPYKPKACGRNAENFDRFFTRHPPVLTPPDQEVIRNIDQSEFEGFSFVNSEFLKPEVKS

relative binding capacity (100-%n, DMSO subtracted) [1]: 0%
relative binding capacity (100-%n, DMSO subtracted) [2]: 6.96%
relative binding capacity (100-%n, DMSO subtracted) [3]: 0%
relative binding capacity (100-%n, DMSO subtracted) [4]: 3.38%
relative binding capacity (100-%n, DMSO subtracted) [5]: 6.68%
relative binding capacity (100-%n, DMSO subtracted) [6]: 0%
relative binding capacity (100-%n, DMSO subtracted) [7]: 0%
relative binding capacity (100-%n, DMSO subtracted) [8]: 1.11%
relative binding capacity (100-%n, DMSO subtracted) [9]: 0%
Binder: ILEDKGGDAQNLIGISI (also called peptide PRE 8) [PRE 8]

relative binding capacity (100-%n, DMSO subtracted) [10]: 3.77%
relative binding capacity (100-%n, DMSO subtracted) [1]: 0%
relative binding capacity (100-%n, DMSO subtracted) [2]: 0%
relative binding capacity (100-%n, DMSO subtracted) [3]: 0%
relative binding capacity (100-%n, DMSO subtracted) [4]: 0%
relative binding capacity (100-%n, DMSO subtracted) [5]: 9.47%
relative binding capacity (100-%n, DMSO subtracted) [6]: 0%
relative binding capacity (100-%n, DMSO subtracted) [11]: 0%
relative binding capacity (100-%n, DMSO subtracted) [12]: 4.35%
relative binding capacity (100-%n, DMSO subtracted) [7]: 0%
relative binding capacity (100-%n, DMSO subtracted) [8]: 0%
relative binding capacity (100-%n, DMSO subtracted) [9]: 0%
Binder: Ac-ISIGILNQADK-NH2 (also called peptide PRE 10) [PRE 10]

relative binding capacity (100-%n, DMSO subtracted) [1]: 0%
relative binding capacity (100-%n, DMSO subtracted) [2]: 3.06%
relative binding capacity (100-%n, DMSO subtracted) [3]: 11.1%
relative binding capacity (100-%n, DMSO subtracted) [4]: 0%
relative binding capacity (100-%n, DMSO subtracted) [5]: 0%
relative binding capacity (100-%n, DMSO subtracted) [6]: 6.72%
relative binding capacity (100-%n, DMSO subtracted) [7]: 2.59%
relative binding capacity (100-%n, DMSO subtracted) [8]: 5.42%
relative binding capacity (100-%n, DMSO subtracted) [9]: 6.59%
Binder: Ac-ISIGILQNADK-NH2 (also called peptide PRE 7) [PRE 7]

relative binding capacity (100-%n, DMSO subtracted) [10]: 9.86%
relative binding capacity (100-%n, DMSO subtracted) [1]: 0%
relative binding capacity (100-%n, DMSO subtracted) [2]: 34.1%
relative binding capacity (100-%n, DMSO subtracted) [3]: 11%
relative binding capacity (100-%n, DMSO subtracted) [4]: 21.5%
relative binding capacity (100-%n, DMSO subtracted) [5]: 18.7%
relative binding capacity (100-%n, DMSO subtracted) [6]: 5.96%
relative binding capacity (100-%n, DMSO subtracted) [11]: 12.5%
relative binding capacity (100-%n, DMSO subtracted) [12]: 14.2%
relative binding capacity (100-%n, DMSO subtracted) [7]: 6.4%
relative binding capacity (100-%n, DMSO subtracted) [8]: 7.14%
relative binding capacity (100-%n, DMSO subtracted) [9]: 13.3%
Binder: Ac-RDAQNLIGISI-NH2 (also called peptide PRE 11) [PRE 11]

Further lines, the binder ahead of its results:

Binder: Ac-KDANQLIGISI-NH2 (also called peptide PRE 6) [PRE 6]
relative binding capacity (100-%n, DMSO subtracted) [10]: 0%
relative binding capacity (100-%n, DMSO subtracted) [1]: 0%
relative binding capacity (100-%n, DMSO subtracted) [2]: 17.5%
relative binding capacity (100-%n, DMSO subtracted) [3]: 0%
relative binding capacity (100-%n, DMSO subtracted) [4]: 13.2%
relative binding capacity (100-%n, DMSO subtracted) [5]: 14%
relative binding capacity (100-%n, DMSO subtracted) [6]: 0%
relative binding capacity (100-%n, DMSO subtracted) [11]: 6.14%
relative binding capacity (100-%n, DMSO subtracted) [12]: 7.93%
relative binding capacity (100-%n, DMSO subtracted) [7]: 0%
relative binding capacity (100-%n, DMSO subtracted) [8]: 0.08%
relative binding capacity (100-%n, DMSO subtracted) [9]: 0%

Binder: KDAQNLIGISL-NH2 (also called peptide PRE 2) [PRE 2]
Band Intensity [13]: 0
Inhibition (%) [13]: 100%
Relative Intensity (%) [13]: 0%
Band Intensity [14]: 0
Inhibition (%) [14]: 100%
Relative Intensity (%) [14]: 0%
Band Intensity [15]: 323
Inhibition (%) [15]: 23.4%
Relative Intensity (%) [15]: 76.6%
Band Intensity [16]: 0
Inhibition (%) [16]: 100%
Relative Intensity (%) [16]: 0%
Band Intensity [17]: 0
Inhibition (%) [17]: 100%
Relative Intensity (%) [17]: 0%
Band Intensity [18]: 160
Inhibition (%) [18]: 38.6%
Relative Intensity (%) [18]: 61.4%

B1: PRE 1 (peptide)
peptide: RRKKGGKDFVVKR
notes: also called peptide PRE 1; peptide recognition element 1
relative binding capacity (100-%n, DMSO subtracted) [10]: 19.8%
relative binding capacity (100-%n, DMSO subtracted) [1]: 0.69%
relative binding capacity (100-%n, DMSO subtracted) [2]: 35.7%
relative binding capacity (100-%n, DMSO subtracted) [3]: 0%
relative binding capacity (100-%n, DMSO subtracted) [4]: 45.2%
relative binding capacity (100-%n, DMSO subtracted) [5]: 49.4%
relative binding capacity (100-%n, DMSO subtracted) [6]: 0%
relative binding capacity (100-%n, DMSO subtracted) [11]: 13.4%
relative binding capacity (100-%n, DMSO subtracted) [12]: 13.9%
relative binding capacity (100-%n, DMSO subtracted) [7]: 0%
relative binding capacity (100-%n, DMSO subtracted) [8]: 0%
relative binding capacity (100-%n, DMSO subtracted) [9]: 2.1%

From patent publication US20110039770A1 (PHARMAGAP, published 2011)
